Measurements published in patent US20230057904A1 (Chugai, published 2023).
Numbering of substitutions follows the chain as printed.

T1: human CLDN9 (human, UniProt O95484 1-217)
T1 construct: also called hCLDN9; hCLDN9/BaF
T1 sequence: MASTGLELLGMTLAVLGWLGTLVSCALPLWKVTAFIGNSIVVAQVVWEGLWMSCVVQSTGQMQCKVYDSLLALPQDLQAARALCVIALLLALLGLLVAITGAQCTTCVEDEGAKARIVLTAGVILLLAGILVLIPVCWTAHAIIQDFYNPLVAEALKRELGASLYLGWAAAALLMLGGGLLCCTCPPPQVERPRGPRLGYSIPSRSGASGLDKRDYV

T2: mouse CLDN4 (mouse, UniProt O35054 1-210)
T2 construct: also called mCLDN4; mCLDN4/FS293
T2 sequence: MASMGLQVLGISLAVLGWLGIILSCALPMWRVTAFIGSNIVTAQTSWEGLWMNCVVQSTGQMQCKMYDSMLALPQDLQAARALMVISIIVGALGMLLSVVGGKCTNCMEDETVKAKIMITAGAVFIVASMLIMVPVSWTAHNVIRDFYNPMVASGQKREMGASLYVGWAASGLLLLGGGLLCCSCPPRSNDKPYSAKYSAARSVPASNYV

T3: mouse CLDN6 (mouse, UniProt Q9Z262 1-219)
T3 construct: also called mCLDN6; mCLDN6/FS293
T3 chain: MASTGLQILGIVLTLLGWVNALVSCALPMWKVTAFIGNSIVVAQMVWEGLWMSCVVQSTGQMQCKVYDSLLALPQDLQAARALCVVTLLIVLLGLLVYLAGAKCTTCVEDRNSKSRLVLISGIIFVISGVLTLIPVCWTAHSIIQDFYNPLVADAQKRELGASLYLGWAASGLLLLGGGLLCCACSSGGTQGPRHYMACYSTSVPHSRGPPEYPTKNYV

T4: human CLDN3 (human, UniProt O15551 1-220)
T4 construct: also called hCLDN3; hCLDN3/BaF
T4 sequence: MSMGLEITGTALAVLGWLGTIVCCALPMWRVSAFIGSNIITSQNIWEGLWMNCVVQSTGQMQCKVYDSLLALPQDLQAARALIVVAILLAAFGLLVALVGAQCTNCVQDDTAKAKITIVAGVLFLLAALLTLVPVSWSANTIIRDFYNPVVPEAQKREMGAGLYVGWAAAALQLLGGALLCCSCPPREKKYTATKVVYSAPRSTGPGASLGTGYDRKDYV

T5: human CLDN4 (human, UniProt O14493 1-209)
T5 construct: also called hCLDN4; hCLDN4/BaF
T5 sequence: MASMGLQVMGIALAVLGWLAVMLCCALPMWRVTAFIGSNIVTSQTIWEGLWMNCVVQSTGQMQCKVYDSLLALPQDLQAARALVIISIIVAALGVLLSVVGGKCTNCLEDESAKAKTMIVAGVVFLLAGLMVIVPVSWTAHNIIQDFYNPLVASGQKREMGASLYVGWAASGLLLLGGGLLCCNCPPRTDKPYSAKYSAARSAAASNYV

T6: mouse CLDN3 (mouse, UniProt Q9Z0G9 1-219)
T6 construct: also called mCLDN3; mCLDN3/FS293
T6 sequence: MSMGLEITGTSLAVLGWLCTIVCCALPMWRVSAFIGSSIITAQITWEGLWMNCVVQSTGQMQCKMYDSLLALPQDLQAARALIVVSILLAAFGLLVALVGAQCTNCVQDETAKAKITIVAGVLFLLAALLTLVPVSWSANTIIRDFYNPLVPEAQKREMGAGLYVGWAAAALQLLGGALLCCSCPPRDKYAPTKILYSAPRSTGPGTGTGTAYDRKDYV

T7: mouse CLDN9 (mouse, UniProt Q9Z0S7 1-217)
T7 construct: also called mCLDN9; mCLDN9/FS293
T7 sequence: T1 sequence with I86V, I124L, A128S, P188S, Q189H, V190F

B1: CDA0013/TR01 (bispecific antibody, V domains shown)
VH 1: QSLEESGGRLVTPGTPLTLTCTVSGIDLNNYGVGWVRQPPGKGLEWIGYINALGSAYYASWAKGRFTISRTSTTVDLKITSPTTEDTATYFCARVRYLYIGGGGYWIDRLDLWGQGTLVTVSS
VL 1: DVVMTQTPASVEAAVGDTVTIKCQASQSISSCLSWYQQKPGQPPKLLIYYASTLASGVPSRFSGSGSGTEFTLTISGLQCDDAATYYCLGVVSYVSADGGFGGGTEVVVK
VH 2: QVQLVESGGGVVQPGGSLRLSCAASGFTFSNAWMHWVRQAPGKGLEWVAQIKDKSQNYATYVAESVKGRFTISRADSKNSIYLQMNSLKTEDTAVYYCRYVHYAAGYGVDIWGQGTTVTVSS
VL 2: DIVMTQSPLSLPVTPGEPASISCRSSQPLVHSNRNTYLHWYQQKPGQAPRLLIYKVSNRFSGVPDRFSGSGSGTDFTLKISRVEAEDVGVYYCGQGTQVPYTFGQGTKLEIK
notes: CDA0013 is rabbit-derived; IgG format by Fab arm exchange, silent Fc; also called anti-CLDN6/CD3 bispecific antibody CDA0013/TR01
B2: 6PHU3/TR01 (bispecific antibody, V domains shown)
VH 1: EVQLQQSGPELVKPGASMKISCKASGYSFTGYTMNWVKQSHGKNLEWIGLINPYNGGTIYNQKFKGKATLTVDKSSSTAYMELLSLTSEDSAVYYCARDYGFVLDYWGQGTTLTVSS
VL 1: DIVLTQSPSIMSVSPGEKVTITCSASSSVSYMHWFQQKPGTSPKLCIYSTSNLASGVPARFSGRGSGTSYSLTISRVAAEDAATYYCQQRSNYPPWTFGGGTKLEIK
VH 2: B1 VH 2
VL 2: B1 VL 2
notes: IgG format by Fab arm exchange, silent Fc; also called anti-CLDN6/CD3 bispecific antibody 6PHU3/TR01

Tests used:
[1] = target: T1, human CLDN9; assay: flow cytometry, FreeStyle 293-F transfectants expressing human CLDN9, anti-human IgG Alexa Fluor 647; MFI
Description: (§1) Antibodies were mixed with FreeStyle™ 293-F cells transiently expressed human and mouse CLDN3, 4, 6, and 9 at final concentration of 10 micro g/mL. After 1 hour of incubation, cells were washed by 0.1% BSA containing D-PBS(−), and incubated in 5 micro g/mL of either Goat anti-Human IgG (H+L) Cross-Adsorbed Secondary Antibody, Alexa Fluor 647 (Invitrogen, A21445) or Goat anti-Mouse IgG (H+L) Highly Cross-Adsorbed Secondary Antibody, Alexa Fluor 647 (Invitrogen, A21236), for 1 hour. Cells were then washed with 0.1% BSA containing D-PBS(−), resuspended in 5 micro L of 0.1% BSA containing D-PBS(−), and analyzed by flow cytometer (iQue Screener, intellicyte).

[2] = target: T2, mouse CLDN4; assay: flow cytometry, FreeStyle 293-F transfectants expressing mouse CLDN4, anti-human IgG Alexa Fluor 647; MFI
Description: as §1

[3] = target: T3, mouse CLDN6; assay: flow cytometry, FreeStyle 293-F transfectants expressing mouse CLDN6, 10 micro g/mL antibody, anti-human IgG Alexa Fluor 647; MFI
Description: as §1

[4] = target: T4, human CLDN3; assay: flow cytometry, FreeStyle 293-F transfectants expressing human CLDN3, anti-human IgG Alexa Fluor 647; MFI
Description: as §1

[5] = target: T5, human CLDN4; assay: flow cytometry, FreeStyle 293-F transfectants expressing human CLDN4, anti-human IgG Alexa Fluor 647; MFI
[6] = target: T6, mouse CLDN3; assay: flow cytometry, FreeStyle 293-F transfectants expressing mouse CLDN3, anti-human IgG Alexa Fluor 647; MFI
Description: as §1

[7] = target: T7, mouse CLDN9; assay: flow cytometry, FreeStyle 293-F transfectants expressing mouse CLDN9, anti-human IgG Alexa Fluor 647; MFI
Description: as §1

[8] = target: T5, human CLDN4; assay: flow cytometry on hCLDN4/BaF (Ba/F3 transfectant), Alexa Fluor 488 anti-human IgG; histogram against KLH/TR01
Description: Amino acid sequence are highly conserved among CLDN3, CLDN4, CLDN6 and CLDN9. Thus we examined CLDN6 binding specificity by FACS analysis. hCLDN6/BaF, hCLDN3/BaF, hCLDN4/BaF, and hCLDN9/BaF were incubated with CS2201, CS2961, AH05/TR01 and 6PHU3/TR01 at 15 micro g/ml. KLH/TR01 generated in Example 2-3 was used as a staining control. Binding of each antibody was detected with Alexa Fluor 488-conjugated anti human IgG (Invitrogen). Dead cells were separated by eFlour 780 (Invitrogen) staining.

Binder | binding result [1] | binding result [2] | binding result [3] | binding result [4] | binding result [5] | binding result [6] | binding result [7] | binding result [8]
B1 | no binding (tested: 10 micro g/mL) | no binding (tested: 10 micro g/mL) | binds | no binding (tested: 10 micro g/mL) | no binding (tested: 10 micro g/mL) | no binding (tested: 10 micro g/mL) | no binding (tested: 10 micro g/mL) | 
B2 |  | no binding (tested: 10 micro g/mL) | binds | no binding (tested: 10 micro g/mL) |  | no binding (tested: 10 micro g/mL) |  | no binding (tested: 15 micro g/ml)
